Assays:
[1] = molecular target: Venus-tagged mini-Gsi (mGsi); assay: BRET; conditions: HEK293 cells; WKYMVm at x = -5 (highest concentration), 10 min; parent: est. 0.076; read off a plot
[2] = molecular target: β-arrestin 2 fused to Venus fluorescent protein (UniProt P32121); assay: BRET; conditions: HEK293 cells; WKYMVm at x = -5 (highest concentration), 10 min; parent: est. 0.064; read off a plot
[3] = molecular target: N-terminal FLAG-tagged human formyl-peptide receptor 2 fused C-terminally to Renilla luciferase (FPR2-Rluc8) (human) (UniProt P25090); assay: FRET or BRET; BRET as a1, in ΔQ-GRK cells co-transfected with GRK5; WKYMVm 10 min
[4] = molecular target: N-terminal FLAG-tagged human formyl-peptide receptor 2 fused C-terminally to Renilla luciferase (FPR2-Rluc8) (human) (UniProt P25090); assay: FRET or BRET; BRET as a1, FPR2-RLuc8 with Venus-β-arrestin in Control cells of the GRK-edited HEK293 panel; WKYMVm 10 min
[5] = molecular target: N-terminal FLAG-tagged human formyl-peptide receptor 2 fused C-terminally to Renilla luciferase (FPR2-Rluc8) (human) (UniProt P25090); assay: FRET or BRET; BRET as a1, in ΔQ-GRK cells co-transfected with GRK3; WKYMVm 10 min
[6] = molecular target: N-terminal FLAG-tagged human formyl-peptide receptor 2 fused C-terminally to Renilla luciferase (FPR2-Rluc8) (human) (UniProt P25090); assay: FRET or BRET; BRET as a1, in ΔQ-GRK cells co-transfected with GRK6; WKYMVm 10 min
[7] = molecular target: N-terminal FLAG-tagged human formyl-peptide receptor 2 fused C-terminally to Renilla luciferase (FPR2-Rluc8) (human) (UniProt P25090); assay: FRET or BRET; BRET as a1, in CRISPR-Cas9-edited HEK293 cells without GRK2/3 (ΔGRK2/3); WKYMVm 10 min
[8] = molecular target: N-terminal FLAG-tagged human formyl-peptide receptor 2 fused C-terminally to Renilla luciferase (FPR2-Rluc8) (human) (UniProt P25090); assay: FRET or BRET; BRET in live HEK293 cells co-transfected with receptor-RLuc8 (donor, 400 ng) and Venus-tagged mGsi, β-arrestin 1 or β-arrestin 2 (acceptor), 4:1 acceptor:donor; 37°C, Hank's balanced salt solution, 5 μM coelenterazine H; increasing WKYMVm, read 10 min after agonist; ratio acceptor:donor minus untreated; Emax by nonlinear regression; pertussis toxin pretreatment had no effect on β-arrestin recruitment
FPR2 S328A-RLuc8 (human) = FPR2 S328A-RLuc8 (human) (UniProt P25090); assay: as above
FPR2 S326A-RLuc8 (human) = FPR2 S326A-RLuc8 (human) (UniProt P25090); assay: as above
FPR2 T331A-RLuc8 (human) = FPR2 T331A-RLuc8 (human) (UniProt P25090); assay: as above
[9] = molecular target: N-terminal FLAG-tagged human formyl-peptide receptor 2 fused C-terminally to Renilla luciferase (FPR2-Rluc8) (human) (UniProt P25090); assay: as above; remark: listed apart in the source
FPR2 ΔAB-RLuc8 (human) = FPR2 ΔAB-RLuc8 (human) (UniProt P25090); assay: as above
FPR2 ΔAC-RLuc8 (human) = FPR2 ΔAC-RLuc8 (human) (UniProt P25090); assay: as above
FPR2 ΔBC-RLuc8 (human) = FPR2 ΔBC-RLuc8 (human) (UniProt P25090); assay: as above
[10] = molecular target: FPR2 ΔABC-RLuc8 (all C-terminal serine and threonine residues mutated to alanine) (human) (UniProt P25090); assay: as above
[11] = molecular target: FPR2 ΔABC with S328 (printed once as S329) reintroduced, RLuc8 fusion (human) (UniProt P25090); assay: as above
[12] = molecular target: FPR2 ΔABC with S326 reintroduced, RLuc8 fusion (human) (UniProt P25090); assay: as above
[13] = molecular target: FPR2 ΔABC with T331 reintroduced, RLuc8 fusion (human) (UniProt P25090); assay: as above
[14] = molecular target: N-terminal FLAG-tagged human formyl-peptide receptor 2 fused C-terminally to Renilla luciferase (FPR2-Rluc8) (human) (UniProt P25090); assay: FRET or BRET; BRET as a1, in CRISPR-Cas9-edited HEK293 cells without GRK5/6 (ΔGRK5/6); WKYMVm 10 min
[15] = molecular target: N-terminal FLAG-tagged human formyl-peptide receptor 2 fused C-terminally to Renilla luciferase (FPR2-Rluc8) (human) (UniProt P25090); assay: FRET or BRET; BRET as a1, in ΔQ-GRK cells co-transfected with GRK2; WKYMVm 10 min

Substance | Emax (BRET) (normalized acceptor:donor ratio) [3] | Emax (BRET) (normalized acceptor:donor ratio) [4] | Emax (BRET) (normalized acceptor:donor ratio) [5] | Emax (BRET) (normalized acceptor:donor ratio) [6] | Emax (BRET) (normalized acceptor:donor ratio) [7] | Emax (BRET) (normalized acceptor:donor ratio) [8] | Emax (BRET) (normalized acceptor:donor ratio) (FPR2 S328A-RLuc8 (human)) | Emax (BRET) (normalized acceptor:donor ratio) (FPR2 S326A-RLuc8 (human)) | Emax (BRET) (normalized acceptor:donor ratio) (FPR2 T331A-RLuc8 (human)) | Emax (BRET) (normalized acceptor:donor ratio) [9] | Emax (BRET) (normalized acceptor:donor ratio) (FPR2 ΔAB-RLuc8 (human)) | Emax (BRET) (normalized acceptor:donor ratio) (FPR2 ΔAC-RLuc8 (human)) | Emax (BRET) (normalized acceptor:donor ratio) (FPR2 ΔBC-RLuc8 (human)) | Emax (BRET) (normalized acceptor:donor ratio) [10] | Emax (BRET) (normalized acceptor:donor ratio) [11] | Emax (BRET) (normalized acceptor:donor ratio) [12] | Emax (BRET) (normalized acceptor:donor ratio) [13] | Emax (BRET) (normalized acceptor:donor ratio) [14] | Emax (BRET) (normalized acceptor:donor ratio) [15] | further results
N-terminal FLAG-tagged human formyl-peptide receptor 2 fused C-terminally to Renilla luciferase (FPR2-Rluc8) (from UniProt P25090) DAC (… to …; R to A of the DRC motif) |  |  |  |  |  |  |  |  |  |  |  |  |  |  |  |  |  |  |  | response [1]: 0 N-BRET; response [2]: 0.033 N-BRET
β-arrestin 1 fused to Venus fluorescent protein (from UniProt P49407 1-418) (natural protein) | 0.0884 | 0.0931 | 0.0855 | 0.0557 | 0.0708 | 0.0821 | 0.0481 | 0.0623 | 0.0667 | 0.0782 | 0.0359 | 0.0638 | 0.000955 | 0.00138 | -0.00162 | 0.00242 | -0.000883 | 0.0299 | 0.0822 | 
β-arrestin 2 fused to Venus fluorescent protein (from UniProt P32121 1-409) (natural protein) | 0.0971 | 0.098 | 0.0949 | 0.0583 | 0.0807 | 0.0854 | 0.0608 | 0.0605 | 0.0611 | 0.0715 | 0.0396 | 0.0691 | 0.0015 | 0.0146 | 0.0111 | 0.0217 | 0.0194 | 0.0541 | 0.0987 | 
